This is an account of results in PMC5589886.

The target in assay [1] is relaxin family peptide receptor-1 (human) (UniProt Q9HBX9).
Assay [2] has the same target. The source holds these as a separate data set.
The target is the same in assay [3]. This is another data set of the same source.

Chain of UniProt Q9HBX9 (Q9HBX9 whole entry): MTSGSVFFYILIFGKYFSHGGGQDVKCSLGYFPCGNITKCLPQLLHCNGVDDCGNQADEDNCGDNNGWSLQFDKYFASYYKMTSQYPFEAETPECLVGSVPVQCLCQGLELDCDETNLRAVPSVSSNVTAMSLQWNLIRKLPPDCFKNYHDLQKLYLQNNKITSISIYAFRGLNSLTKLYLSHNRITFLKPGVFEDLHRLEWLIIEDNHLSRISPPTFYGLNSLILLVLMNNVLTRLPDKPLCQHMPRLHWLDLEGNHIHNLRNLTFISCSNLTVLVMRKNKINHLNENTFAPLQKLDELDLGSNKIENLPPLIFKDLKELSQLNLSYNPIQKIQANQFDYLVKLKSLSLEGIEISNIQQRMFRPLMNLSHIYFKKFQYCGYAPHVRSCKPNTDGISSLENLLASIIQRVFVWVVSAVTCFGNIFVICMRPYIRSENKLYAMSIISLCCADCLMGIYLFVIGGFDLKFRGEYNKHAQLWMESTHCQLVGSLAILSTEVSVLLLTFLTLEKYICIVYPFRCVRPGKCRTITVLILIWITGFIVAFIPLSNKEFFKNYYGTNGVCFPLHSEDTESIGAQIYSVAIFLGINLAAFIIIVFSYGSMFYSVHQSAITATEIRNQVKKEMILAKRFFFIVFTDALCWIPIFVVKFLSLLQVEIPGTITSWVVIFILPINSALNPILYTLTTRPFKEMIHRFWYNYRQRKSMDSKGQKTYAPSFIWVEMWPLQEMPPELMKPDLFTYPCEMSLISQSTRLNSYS

On to human relaxin-2 (ligand), for which the cAMP generation (TR-FRET Lance cAMP immunoassay), mean pEC50 of H2-RLX in HEK293 cells transduced with RXFP1 BacMam at 0.5%, 5% and 10% v/v (pEC50 9.7, 10.2 and 11.3) in assay [1] was 11.3 pEC50. In assay [2], the cAMP response, representative H2-RLX dose response in LX-2 cells (endogenous RXFP1), pEC50 was found to be 8.8 pEC50 and the cAMP response, representative H2-RLX dose response in hHSCs (endogenous RXFP1), pEC50 was found to be 9.3 pEC50. Besides, in assay [3], the cAMP response of LX-2 cells (endogenous RXFP1) to 60 min H2-RLX after 40 h culture on plastic, mean pEC50 (n = 7) was 9.1 pEC50 and the cAMP response of primary hHSCs (endogenous RXFP1) to 60 min H2-RLX after 40 h culture, mean pEC50 across three patient samples stood at 9 pEC50.
